# B1: dBBDu183H K64W/dBBDu072L (antibody, name in Kabat numbering, V domains shown)
# VH: QVQLVESGGGLVQPGRSLRLSCAASGFTFSNAWMHWVRQAPGKGLEWVAQIKDKGNAYAAYYAPSVWGRFTISRDDSKNSIYLQMNSLKTEDTAVYYCHYVHYASASTVLPAFGVDAWGQGTTVTVSS
# VL: DIVMTQSPLSLPVTPGEPASISCQASQELVHMNRNTYLHWYQQKPGQAPRLLIYKVSNRFPGVPDRFSGSGSGTDFTLKISRVEAEDVGVYYCAQGTSVPFTFGQGTKLEIK
# B2: dBBDu183H L100dG/dBBDu072L (antibody, name in Kabat numbering, V domains shown)
# VH: QVQLVESGGGLVQPGRSLRLSCAASGFTFSNAWMHWVRQAPGKGLEWVAQIKDKGNAYAAYYAPSVKGRFTISRDDSKNSIYLQMNSLKTEDTAVYYCHYVHYASASTVGPAFGVDAWGQGTTVTVSS
# VL: DIVMTQSPLSLPVTPGEPASISCQASQELVHMNRNTYLHWYQQKPGQAPRLLIYKVSNRFPGVPDRFSGSGSGTDFTLKISRVEAEDVGVYYCAQGTSVPFTFGQGTKLEIK
# B3: dBBDu183H L100dH/dBBDu072L (antibody, name in Kabat numbering, V domains shown)
# VH: QVQLVESGGGLVQPGRSLRLSCAASGFTFSNAWMHWVRQAPGKGLEWVAQIKDKGNAYAAYYAPSVKGRFTISRDDSKNSIYLQMNSLKTEDTAVYYCHYVHYASASTVHPAFGVDAWGQGTTVTVSS
# VL: DIVMTQSPLSLPVTPGEPASISCQASQELVHMNRNTYLHWYQQKPGQAPRLLIYKVSNRFPGVPDRFSGSGSGTDFTLKISRVEAEDVGVYYCAQGTSVPFTFGQGTKLEIK
# B4: dBBDu183H L100dF/dBBDu072L (antibody, name in Kabat numbering, V domains shown)
# VH: QVQLVESGGGLVQPGRSLRLSCAASGFTFSNAWMHWVRQAPGKGLEWVAQIKDKGNAYAAYYAPSVKGRFTISRDDSKNSIYLQMNSLKTEDTAVYYCHYVHYASASTVFPAFGVDAWGQGTTVTVSS
# VL: DIVMTQSPLSLPVTPGEPASISCQASQELVHMNRNTYLHWYQQKPGQAPRLLIYKVSNRFPGVPDRFSGSGSGTDFTLKISRVEAEDVGVYYCAQGTSVPFTFGQGTKLEIK
# B5: dBBDu183H L100dV/dBBDu072L (antibody, name in Kabat numbering, V domains shown)
# VH: QVQLVESGGGLVQPGRSLRLSCAASGFTFSNAWMHWVRQAPGKGLEWVAQIKDKGNAYAAYYAPSVKGRFTISRDDSKNSIYLQMNSLKTEDTAVYYCHYVHYASASTVVPAFGVDAWGQGTTVTVSS
# VL: DIVMTQSPLSLPVTPGEPASISCQASQELVHMNRNTYLHWYQQKPGQAPRLLIYKVSNRFPGVPDRFSGSGSGTDFTLKISRVEAEDVGVYYCAQGTSVPFTFGQGTKLEIK
# B6: dBBDu183H K64Y/dBBDu072L (antibody, name in Kabat numbering, V domains shown)
# VH: QVQLVESGGGLVQPGRSLRLSCAASGFTFSNAWMHWVRQAPGKGLEWVAQIKDKGNAYAAYYAPSVYGRFTISRDDSKNSIYLQMNSLKTEDTAVYYCHYVHYASASTVLPAFGVDAWGQGTTVTVSS
# VL: DIVMTQSPLSLPVTPGEPASISCQASQELVHMNRNTYLHWYQQKPGQAPRLLIYKVSNRFPGVPDRFSGSGSGTDFTLKISRVEAEDVGVYYCAQGTSVPFTFGQGTKLEIK
# B7: dBBDu183H L100dE/dBBDu072L (antibody, name in Kabat numbering, V domains shown)
# VH: QVQLVESGGGLVQPGRSLRLSCAASGFTFSNAWMHWVRQAPGKGLEWVAQIKDKGNAYAAYYAPSVKGRFTISRDDSKNSIYLQMNSLKTEDTAVYYCHYVHYASASTVEPAFGVDAWGQGTTVTVSS
# VL: DIVMTQSPLSLPVTPGEPASISCQASQELVHMNRNTYLHWYQQKPGQAPRLLIYKVSNRFPGVPDRFSGSGSGTDFTLKISRVEAEDVGVYYCAQGTSVPFTFGQGTKLEIK
# B8: dBBDu183H L100dQ/dBBDu072L (antibody, name in Kabat numbering, V domains shown)
# VH: QVQLVESGGGLVQPGRSLRLSCAASGFTFSNAWMHWVRQAPGKGLEWVAQIKDKGNAYAAYYAPSVKGRFTISRDDSKNSIYLQMNSLKTEDTAVYYCHYVHYASASTVQPAFGVDAWGQGTTVTVSS
# VL: DIVMTQSPLSLPVTPGEPASISCQASQELVHMNRNTYLHWYQQKPGQAPRLLIYKVSNRFPGVPDRFSGSGSGTDFTLKISRVEAEDVGVYYCAQGTSVPFTFGQGTKLEIK
# B9: dBBDu183H L100dN/dBBDu072L (antibody, name in Kabat numbering, V domains shown)
# VH: QVQLVESGGGLVQPGRSLRLSCAASGFTFSNAWMHWVRQAPGKGLEWVAQIKDKGNAYAAYYAPSVKGRFTISRDDSKNSIYLQMNSLKTEDTAVYYCHYVHYASASTVNPAFGVDAWGQGTTVTVSS
# VL: DIVMTQSPLSLPVTPGEPASISCQASQELVHMNRNTYLHWYQQKPGQAPRLLIYKVSNRFPGVPDRFSGSGSGTDFTLKISRVEAEDVGVYYCAQGTSVPFTFGQGTKLEIK
# B10: dBBDu183H L100dK/dBBDu072L (antibody, name in Kabat numbering, V domains shown)
# VH: QVQLVESGGGLVQPGRSLRLSCAASGFTFSNAWMHWVRQAPGKGLEWVAQIKDKGNAYAAYYAPSVKGRFTISRDDSKNSIYLQMNSLKTEDTAVYYCHYVHYASASTVKPAFGVDAWGQGTTVTVSS
# VL: DIVMTQSPLSLPVTPGEPASISCQASQELVHMNRNTYLHWYQQKPGQAPRLLIYKVSNRFPGVPDRFSGSGSGTDFTLKISRVEAEDVGVYYCAQGTSVPFTFGQGTKLEIK
# B11: dBBDu183H L100dT/dBBDu072L (antibody, name in Kabat numbering, V domains shown)
# VH: QVQLVESGGGLVQPGRSLRLSCAASGFTFSNAWMHWVRQAPGKGLEWVAQIKDKGNAYAAYYAPSVKGRFTISRDDSKNSIYLQMNSLKTEDTAVYYCHYVHYASASTVTPAFGVDAWGQGTTVTVSS
# VL: DIVMTQSPLSLPVTPGEPASISCQASQELVHMNRNTYLHWYQQKPGQAPRLLIYKVSNRFPGVPDRFSGSGSGTDFTLKISRVEAEDVGVYYCAQGTSVPFTFGQGTKLEIK
# B12: dBBDu183H L100dS/dBBDu072L (antibody, name in Kabat numbering, V domains shown)
# VH: QVQLVESGGGLVQPGRSLRLSCAASGFTFSNAWMHWVRQAPGKGLEWVAQIKDKGNAYAAYYAPSVKGRFTISRDDSKNSIYLQMNSLKTEDTAVYYCHYVHYASASTVSPAFGVDAWGQGTTVTVSS
# VL: DIVMTQSPLSLPVTPGEPASISCQASQELVHMNRNTYLHWYQQKPGQAPRLLIYKVSNRFPGVPDRFSGSGSGTDFTLKISRVEAEDVGVYYCAQGTSVPFTFGQGTKLEIK
# B13: dBBDu183H L100dR/dBBDu072L (antibody, name in Kabat numbering, V domains shown)
# VH: QVQLVESGGGLVQPGRSLRLSCAASGFTFSNAWMHWVRQAPGKGLEWVAQIKDKGNAYAAYYAPSVKGRFTISRDDSKNSIYLQMNSLKTEDTAVYYCHYVHYASASTVRPAFGVDAWGQGTTVTVSS
# VL: DIVMTQSPLSLPVTPGEPASISCQASQELVHMNRNTYLHWYQQKPGQAPRLLIYKVSNRFPGVPDRFSGSGSGTDFTLKISRVEAEDVGVYYCAQGTSVPFTFGQGTKLEIK
# B14: dBBDu183H L100dD/dBBDu072L (antibody, name in Kabat numbering, V domains shown)
# VH: QVQLVESGGGLVQPGRSLRLSCAASGFTFSNAWMHWVRQAPGKGLEWVAQIKDKGNAYAAYYAPSVKGRFTISRDDSKNSIYLQMNSLKTEDTAVYYCHYVHYASASTVDPAFGVDAWGQGTTVTVSS
# VL: DIVMTQSPLSLPVTPGEPASISCQASQELVHMNRNTYLHWYQQKPGQAPRLLIYKVSNRFPGVPDRFSGSGSGTDFTLKISRVEAEDVGVYYCAQGTSVPFTFGQGTKLEIK
# Target: T1, Human CD3eg linker (human)
# T1 construct: single-chain construct; also called recombinant human CD3
# T1 chain: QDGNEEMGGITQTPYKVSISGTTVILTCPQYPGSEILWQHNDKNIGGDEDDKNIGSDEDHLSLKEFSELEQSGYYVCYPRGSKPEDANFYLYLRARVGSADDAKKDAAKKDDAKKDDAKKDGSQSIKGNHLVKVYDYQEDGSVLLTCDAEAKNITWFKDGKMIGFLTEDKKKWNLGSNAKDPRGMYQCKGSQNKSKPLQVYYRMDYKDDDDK
# Assay: SPR, vs unmutated H183/L072
row,Binder,fold change of affinity [fold]
1,B1,1
2,B2,2
3,B3,1.3
4,B4,1.3
5,B5,1
6,B6,1
7,B7,0.7
8,B8,1.1
9,B9,1.2
10,B10,1.8
11,B11,1.3
12,B12,1.2
13,B13,1.8
14,B14,1
